Data reported in US12604903B2 (priority 2019, dated 2026).

What was measured:
[1] = tested on: Alternaria brassicicola
[2] = tested on: Phytophthora capsici

B1: TKPCQSDKDCKKFACRKPKVPKCINGFCKCVRAPKKVEPTKPCQSDKDCKKFACRKPKVPKCINGFCKCVR (protein)
chain: TKPCQSDKDCKKFACRKPKVPKCINGFCKCVRAPKKVEPTKPCQSDKDCKKFACRKPKVPKCINGFCKCVR
notes: two NCR13 monomers linked in tandem by the APKKVEP spacer peptide from MtDef5 defensin, 71 amino acids
[1]
  antifungal activity against A. brassicicola (in words): significantly more active
[1]; in vitro growth inhibition
  Alternaria brassicicola MIC: 1.5 µM
[1]; read-out: Alternaria brassicicola IC50, in vitro growth inhibition
  IC50: 750 nM
[2]
  growth inhibition of P. capsici (in words): inhibited the growth
[2]; in vitro growth inhibition
  Phytophthora capsici MIC: 3 µM
[2]; read-out: Phytophthora capsici IC50, in vitro growth inhibition
  IC50: 1500 nM
